Like-named read-outs stand apart in the source and are kept apart here.
T1: human B7-H4 on the cell surface (human, UniProt Q7Z7D3 25-282)
T1 construct: full-length human B7-H4 on transfected HEK293T cells or endogenous on SK-BR-3 cells; also called SK-BR-3 (endogenous human B7-H4)
T1 sequence: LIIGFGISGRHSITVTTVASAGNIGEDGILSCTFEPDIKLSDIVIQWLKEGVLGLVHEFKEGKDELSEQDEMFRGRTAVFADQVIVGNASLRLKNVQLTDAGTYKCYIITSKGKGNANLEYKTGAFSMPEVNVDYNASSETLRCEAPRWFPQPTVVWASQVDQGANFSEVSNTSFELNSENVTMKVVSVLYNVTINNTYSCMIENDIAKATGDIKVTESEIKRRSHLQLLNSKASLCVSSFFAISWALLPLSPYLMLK

T2: cynomolgus monkey B7-H4 (recombinant, BLI) (cynomolgus monkey, UniProt Q7Z7D3 25-259 (human entry))
T2 construct: also called Cynomolgus B7-H4
T2 sequence: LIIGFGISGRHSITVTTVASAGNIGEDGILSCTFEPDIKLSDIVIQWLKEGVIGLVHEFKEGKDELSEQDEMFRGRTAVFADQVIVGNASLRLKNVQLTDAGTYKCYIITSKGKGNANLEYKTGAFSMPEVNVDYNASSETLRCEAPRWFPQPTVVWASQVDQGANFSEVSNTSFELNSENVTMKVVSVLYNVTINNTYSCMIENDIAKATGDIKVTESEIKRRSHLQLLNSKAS

T3: mouse B7-H4 (recombinant, BLI) (mouse, UniProt Q7TSP5 29-256, limits assumed)
T3 construct: also called murine B7-H4
T3 sequence: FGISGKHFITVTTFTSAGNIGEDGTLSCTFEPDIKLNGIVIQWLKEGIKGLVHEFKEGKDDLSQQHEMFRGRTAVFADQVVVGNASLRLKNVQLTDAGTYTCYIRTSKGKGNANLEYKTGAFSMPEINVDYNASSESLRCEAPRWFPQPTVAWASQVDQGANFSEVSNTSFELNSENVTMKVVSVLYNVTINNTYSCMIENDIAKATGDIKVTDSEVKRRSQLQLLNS

T4: mouse B7-H4 on the cell surface (mouse, UniProt Q7TSP5 25-257)
T4 construct: full-length, on transfected HEK293T cells
T4 sequence: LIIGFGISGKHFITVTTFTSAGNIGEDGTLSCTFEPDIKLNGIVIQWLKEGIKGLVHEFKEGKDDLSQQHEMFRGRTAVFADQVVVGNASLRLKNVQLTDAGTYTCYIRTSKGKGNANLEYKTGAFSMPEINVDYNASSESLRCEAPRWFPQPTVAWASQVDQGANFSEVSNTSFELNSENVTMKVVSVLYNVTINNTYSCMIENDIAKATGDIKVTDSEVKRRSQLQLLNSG

T5: cynomolgus monkey B7-H4 on the cell surface (cynomolgus monkey, UniProt Q7Z7D3 25-282 (human entry))
T5 construct: full-length, on transfected HEK293T cells
T5 chain: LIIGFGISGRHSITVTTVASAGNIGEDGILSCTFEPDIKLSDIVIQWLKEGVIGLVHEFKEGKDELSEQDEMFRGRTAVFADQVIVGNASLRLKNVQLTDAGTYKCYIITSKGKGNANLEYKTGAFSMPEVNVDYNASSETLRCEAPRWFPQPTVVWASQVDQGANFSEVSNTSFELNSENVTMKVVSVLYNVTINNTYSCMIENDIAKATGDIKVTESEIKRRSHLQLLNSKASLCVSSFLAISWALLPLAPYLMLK

T6: rat B7-H4 on the cell surface (rat, UniProt Q501W4 25-257)
T6 construct: full-length, on transfected HEK293T cells
T6 sequence: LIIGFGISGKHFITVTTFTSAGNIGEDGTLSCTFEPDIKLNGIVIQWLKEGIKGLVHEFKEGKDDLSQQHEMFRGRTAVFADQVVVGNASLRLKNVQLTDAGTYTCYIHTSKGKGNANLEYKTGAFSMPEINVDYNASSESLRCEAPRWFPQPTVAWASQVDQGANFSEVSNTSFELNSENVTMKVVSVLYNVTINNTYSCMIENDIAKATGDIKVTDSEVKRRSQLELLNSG


Key:
[1] = target: T1, human B7-H4 on the cell surface; assay: flow cytometry, SK-BR-3 cells
Protocol: Following incubation, cells were pelleted, washed and incubated with a secondary labeling antibody and samples were acquired on a flow cytometer. Data was analyzed using the FlowJo software and MFI was plotted vs. antibody concentration. The EC50 cell binding potency was calculated using nonlinear regression curve fit (GraphPad Prism).

[2] = target: T7, recombinant human B7-H4-huIgG1 (human); assay: BLI, antigen on Protein A tips;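 note: Anti-B7-H4 antibodies assessed for affinity toward the B7-H4 extracellular domain using biolayer interferometry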
T7 construct: also called B7-H4-extracellular domain (ECD)
Protocol: (§1) Binding affinities of anti-B7-H4 antibodies to B7-H4-extracellular domain (ECD) were determined by biolayer interferometry (BLI). […] Anti-B7-H4 antibodies were then evaluated for binding.

[3] = target: T2, cynomolgus monkey B7-H4 (recombinant, …); assay: BLI, antigen on Protein A tips;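 note: Anti-B7-H4 antibodies assessed for affinity toward the B7-H4 extracellular domain using biolayer interferometry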
Protocol: as §1

[4] = target: T3, mouse B7-H4 (recombinant, BLI); assay: BLI, antigen on Protein A tips;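 note: Anti-B7-H4 antibodies assessed for affinity toward the B7-H4 extracellular domain using biolayer interferometry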
Protocol: as §1

[5] = target: T4, mouse B7-H4 on the cell surface; assay: flow cytometry, transfected HEK293T
[6] = target: T1, human B7-H4 on the cell surface; assay: flow cytometry, 100 nM, transfected HEK293T
Protocol: (§2) HEK293T cell lines were transfected to express full-length human, cynomolgus monkey, mouse, or rat B7-H4. In addition, the endogenous human B7-H4 expressing SK-BR-3 breast cancer cell line was used to assess the ability of the antibodies to bind B7-H4 expressed on the cell surface. 1×10⁵ parental HEK293T or transfected HEK293T cell lines were incubated with 100 nM of the B7-H4 antibodies. Following incubation, cells were pelleted, washed, and incubated with a secondary labeling antibody, and samples were acquired on a flow cytometer. Fold binding over the parental cell line (FOP) was calculated as follows: MFI transfected HKE293T cells/MFI parental HEK293T cells.

[7] = target: T5, cynomolgus monkey B7-H4 on the cell …; assay: flow cytometry, 100 nM, transfected HEK293T
Protocol: as §2

[8] = target: T1, human B7-H4 on the cell surface; assay: cell-based or functional assay
[9] = target: T1, human B7-H4 on the cell surface; assay: cell-based or functional assay; remark: listed apart in the source
[10] = target: T8, B7-H4 IgV-huIgG1 (human); assay: SPR, protocol of Example 4
T8 construct: also called N-terminal domain of human B7-H4
Protocol: Briefly, anti-human Fab antibody was immobilized on a carboxyl-derivatized SPR chip surface, and anti-B7-H4 antibodies were captured on the resulting surface at 5 ug/ml for 30 seconds.

[11] = target: T1, human B7-H4 on the cell surface; assay: flow cytometry, SK-BR-3 cells; remark: listed apart in the source
Protocol: (§3) The fucosylated and afucosylated anti B7-H4 antibodies were also characterized by flow cytometry. In these experiments, HEK293T cell lines were transfected to express full-length cynomolgus monkey, mouse, or rat B7-H4. In addition, the endogenous human B7-H4 expressing SK-BR-3 breast cancer cell lines were used to assess the cell binding potency of B7-H4 antibodies. […] Following incubation, cells were pelleted, washed, incubated with a secondary labeling antibody, and run on a flow cytometer. Data were analyzed using the FlowJo software. MFI was plotted vs. antibody concentration, and the EC50 cell binding potency was calculated using nonlinear regression curve fit (GraphPad Prism).

[12] = target: T5, cynomolgus monkey B7-H4 on the cell …; assay: flow cytometry, transfected 293 cells
Protocol: as §3

[13] = target: T4, mouse B7-H4 on the cell surface; assay: flow cytometry, transfected 293 cells
Protocol: as §3

[14] = target: T6, rat B7-H4 on the cell surface; assay: flow cytometry, transfected 293 cells
Protocol: as §3

| EC50 [1] [nM] | Kd [2] [nM] | koff [2] [s⁻¹] | kon [2] [M⁻¹ s⁻¹] | Kd [3] [nM] | koff [3] [s⁻¹] | kon [3] [M⁻¹ s⁻¹] | binding result [4] | FOP (fold binding over the parental cell line) [6] [fold] | FOP (fold binding over the parental cell line) [7] [fold] | aAPC Assay EC50 (IFNγ production) [8] [nM] | ADCC Assay EC50 (SK-BR-3 target cells) [9] [nM] | Kd [10] [nM] | koff [10] [s⁻¹] | kon [10] [M⁻¹ s⁻¹] | EC50 [11] [nM] | EC50 [12] [nM] | EC50 [13] [nM] | EC50 [14] [nM] | Binder | binding result [5] |
| --- | --- | --- | --- | --- | --- | --- | --- | --- | --- | --- | --- | --- | --- | --- | --- | --- | --- | --- | --- | --- |
| 61.2 | 9.44 | 0.0272 | 2.89e+06 | 5.17 | 0.0168 | 3.25e+06 | no binding | 619 | 524 | – | – | – | – | – | – | – | – | – | B7-H4 antibody 15495 (antibody, human IgG1, kappa, V domains shown, human IgG1/kappa) VH: QVQLVQSGAEVKKPGSSVKVSCKASGGTFSSYAISWVRQAPGQGLEWMGGIIPIFGTASYAQKFQGRVTITADESTSTAYMELSSLRSEDTAVYYCARQQYDGRRYFGLWGRGTLVTVSS VL: EIVMTQSPATLSVSPGERATLSCRASQSVSSNLAWYQQKPGQAPRLLIYSASTRATGIPARFSGSGSGTEFTLTISSLQSEDFAVYYCQQVNVWPPTFGGGTKVEIKR | no binding (tested: FOP 10; 100 nM antibody) |
| – | 10.4 | 0.0205 | 1.96e+06 | 6.32 | 0.0115 | 1.82e+06 | no binding | 289 | 877 | – | – | – | – | – | – | – | – | – | B7-H4 antibody 15503 (antibody, human IgG1, kappa, V domains shown, human IgG1/kappa) VH: not shown VL: DIQLTQSPSSVSASVGDRVTITCRASQDISSWLAWYQQKPGKAPKLLIYAASSLQSGVPSRFSGSGSGTDFTLTISSLQPEDFATYYCQQATSYPPWTFGGGTKVEIKR | no binding (tested: FOP 10; 100 nM antibody) |
| – | – | – | – | – | – | – | – | – | – | 1.05 | 0.0015 | 2.01 | 0.000725 | 360000 | 0.767 | 1.77 | 1.77 | – | B7-H4 antibody 20506, afucosylated (antibody, human IgG1, kappa, V domains shown, afucosylated Fc glycan (made in CHO-y cells), human IgG1/kappa) VH: QLQLQESGPGLVKPSETLSLTCTASGGSISHGGYYWSWIRQHPGKGLEWIGNIYYSGSTYYNPSLKSRVTMSVDTSKNQFSLKLSSVTAADTAVYYCARESSTISADFDLWGRGTLVTVSS VL: DIQMTQSPSSVSASVGDRVTITCRASQGISRWLAWYQQKPGKAPKLLIYAASSLQSGVPSRFSGSGSGTDFTLTISSLQPEDFATYYCQQAHTFPYTFGGGTKVEIKR | – |
| – | – | – | – | – | – | – | – | – | – | 0.95 | 0.0135 | 1.93 | 0.000703 | 365000 | 0.739 | 1.77 | 1.77 | 3.25 | B7-H4 antibody 20506, fucosylated (antibody, human IgG1, kappa, V domains shown, normally fucosylated Fc glycan (made in CHO-x cells), human IgG1/kappa) VH: QLQLQESGPGLVKPSETLSLTCTASGGSISHGGYYWSWIRQHPGKGLEWIGNIYYSGSTYYNPSLKSRVTMSVDTSKNQFSLKLSSVTAADTAVYYCARESSTISADFDLWGRGTLVTVSS VL: DIQMTQSPSSVSASVGDRVTITCRASQGISRWLAWYQQKPGKAPKLLIYAASSLQSGVPSRFSGSGSGTDFTLTISSLQPEDFATYYCQQAHTFPYTFGGGTKVEIKR | – |

From patent publication US20240043542A1 (published 2024)
